Experimental findings from patent US20240245796A1 (PROFOUNDBIO US, published 2024) are described below.

In experiment [1] the target is T1, human FOLR1 protein, His Tag (ACRO FO1-H52H1) (human, UniProt P15328 25-233).
T1 construct: Bought protein coated on ELISA plates; not shown: His tag
The experiment in a line: ELISA, coated hFOLR1-His, supernatant 1x. (ELISA stands for enzyme-linked immunosorbent assay.)

In experiment [2] the target is T1, human FOLR1 protein, His Tag (ACRO …). The experiment in a line: ELISA, coated hFOLR1-His, supernatant 5x.
Experiment [3] has the same target. Put plainly: ELISA, coated hFOLR1-His, supernatant 25x.
Experiment [4] shares this target. Put plainly: ELISA, coated hFOLR1-His, HEK293 supernatant.
For experiment [5], the target named is T2, cynomolgus FOLR1 protein, His Tag (ACRO F01-C52H8) (cynomolgus, UniProt A0A2K5U044 25-233).
T2 construct: Bought protein coated on ELISA plates; also called Cynomolgus/Rhesus macaque FOLR1, Protein, His Tag; not shown: His tag
T2 sequence (A0A2K5U044 entry or part of it): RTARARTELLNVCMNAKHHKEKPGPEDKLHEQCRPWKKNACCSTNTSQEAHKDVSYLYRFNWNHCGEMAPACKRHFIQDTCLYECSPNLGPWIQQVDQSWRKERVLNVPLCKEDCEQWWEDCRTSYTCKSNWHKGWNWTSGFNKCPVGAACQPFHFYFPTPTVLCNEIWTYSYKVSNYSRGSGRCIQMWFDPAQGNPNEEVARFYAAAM
The experiment in a line: ELISA, coated cyno FOLR1-His, supernatant 1x.

Experiment [6] concerns the target T2, cynomolgus FOLR1 protein, His Tag (ACRO …). Put plainly: ELISA, coated cyno FOLR1-His, supernatant 5x.
Experiment [7] shares this target. The experiment in a line: ELISA, coated cyno FOLR1-His, supernatant 25x.
The target of experiment [8] is T1, human FOLR1 protein, His Tag (ACRO …). The experiment in a line: ratio of OD450 on hFOLR1 to OD450 on anti-human IgG Fc.

T1 sequence (P15328 25-233 limits assumed): as the sequence (A0A2K5U044 entry or part of it) above, with T2I, R4W, K37R, P146A, Y171H counted along it

B1: F40 (antibody, V domains shown)
VH: EVQLLESGGGVVQPGRSLRLSCAASGFTFSSYAMHWVRQAPGKGLEWVAVISYDGSNKYYADSVKGRFIISRDNSKNTVYLQMNSLRAEDTAVYYCARPTYVFTYTGSSFDYWGQGTQVTVSS
VL: DIQVTQSPSSLSASLGDTVSITCRASRGLTDSVAWYQQKPGQAPKLLIYAASTLQSGVPSRFGGSGSGSYFTLTITSLQPEDVATYYCQNYKSAPWTFGQGTKVEIK
notes: Tested as full-length IgG with an IgG1 Fc from HEK293, as supernatant or purified; also called clone F40; anti-FOLR1 antibody F40
Regarding B1, the OD450 in experiment [1] was 0.811 OD450; in experiment [2] it was 0.382 OD450; in experiment [3] it was 0.163 OD450; in experiment [4], 2.39 OD450; in experiment [5], 1.35 OD450; in experiment [6], 1.11 OD450. Moreover, the OD450 in experiment [7] amounted to 0.924 OD450. Also, the “Target binding/IgG level” value in experiment [8] was 1.02.

B2: F1 (antibody, V domains shown)
VH: EVQLLESGGGVVQPGRSLRLSCAASGFTFSSYGMHWVRQAPGKGLEWVAVISYDGSNKYYADSVKGRFTISRDNSKNTLYLQMNSLRAEDTAVYYCARPRAYYGAYGSSFDYWGQGTQVTVSS
VL: EIVMTQSPSSVSASVGDRVAITCRASQGISSWLAWYQQKPGKAPKLLIYAASSLQSGVPSRFSGSGSGTDFTLTISSLQPEDFATYYCQQSYSTPLTFGGGTKVDIK
notes: also called clone F1; anti-FOLR1 antibody F1
Regarding B2, the OD450 stood at 1.66 OD450 in experiment [1]; 1.45 OD450 in experiment [2]; 1.18 OD450 in experiment [3]; 2.43 OD450 in experiment [4]; 1.38 OD450 in experiment [5]; 1.26 OD450 in experiment [6]. Further, in experiment [7], the OD450 came to 0.994 OD450. Further, the “Target binding/IgG level” value in experiment [8] is 1.08.

B3: F138 (antibody, V domains shown)
VH: EVQLLESGGGVVQPGRSLRLSCAASGFTFSSYGMHWVRQAPGKGLEWVAVISYDGSNKYYADSVKGRFTISTHNSKNTLYLQMNSLRAEDTAVYYCARPRAYYGAYGSSFDYWGQGTQVTVSS
VL: EIVMTQSPSSVSASVGDRVAITCRASQGISSWLAWYQQKPGKAPKLLIYAASSLQSGVPSRFSGSGSGTDFTLTISSLQPEDFATYYCQQSYSTPLTFGGGTKVDIK
notes: Tested as full-length IgG with an IgG1 Fc, HEK293 supernatant; also called clone F138; anti-FOLR1 antibody F138
On to B3, for which the OD450 in experiment [1] came to 1.64 OD450; in experiment [2], 1.69 OD450; in experiment [3], 1.83 OD450; in experiment [4], 2.41 OD450; in experiment [5], 1.14 OD450; in experiment [6] it was 1.14 OD450. The molecule further came in with an OD450 in experiment [7] of 1.17 OD450. The “Target binding/IgG level” value in experiment [8] amounted to 1.2.

B4: F123 (antibody, V domains shown)
VH: EVQLLESGGGVVQPERSLRLSCAASGFTFSSYGMHWVRQAPGKGLEWVAVISYDGSNKYYADSVKGRFTISRANSKNTLYLQMNSLRAEDTAVYYCARPRAYYGAYGSSFDYWGQGTQVTVSS
VL: EIVMTQSPSSVSASVGDRVAITCRASQGISSWLAWYQQKPGKAPKLLIYAASSLQSGVPSRFSGSGSGTDFTLTISSLQPEDFATYYCQQSYSTPLTFGGGTKVDIK
notes: Tested as full-length IgG with an IgG1 Fc from HEK293, as supernatant or purified; also called clone F123; anti-FOLR1 antibody F123
In the case of B4, the OD450 was 1.72 OD450 in experiment [1]; 1.47 OD450 in experiment [2]; 1.33 OD450 in experiment [3]; 2.32 OD450 in experiment [4]; 1.36 OD450 in experiment [5]; 1.3 OD450 in experiment [6]. Besides, the OD450 in experiment [7] came to 1.07 OD450. Moreover, the “Target binding/IgG level” value in experiment [8] is 1.06.

B5: F26 (antibody, V domains shown)
VH: EVQLLESGGGVVQRGRSLRLSCAASGFTFSSYGMHWVRQAPGKGLEWVAVISYDGSNKYYADSVKGRFTISRDNSKNTLYLPMNSLRAEDTAVYYCARPRAYYGAYGSSFDYWGQGTQVTVSS
VL: EIVMTQSPSSVSASVGDRVAITCRASQGISSWLAWYQQKPGKAPKLLIYAASSLQSGVPSRFSGSGSGTDFTLTISSLQPEDFATYYCQQSYSTPLTFGGGTKVDIK
notes: Tested as full-length IgG with an IgG1 Fc from HEK293, as supernatant or purified; also called clone F26; anti-FOLR1 antibody F26
Turning to B5, the OD450 in experiment [1] was found to be 1.64 OD450; in experiment [2], 1.51 OD450; in experiment [3], 1.48 OD450; in experiment [4], 2.43 OD450; in experiment [5], 1.24 OD450; in experiment [6], 1.21 OD450. This molecule registered an OD450 in experiment [7] of 1.02 OD450. Besides, the “Target binding/IgG level” value in experiment [8] stood at 1.21.

B6: F48 (antibody, V domains shown)
VH: EVQLLESGGGVVQPGRSLRLSCAASGFTFSSYGMHWVRQAPGKGLEWVAVISYDGSNKYYADSVKGRFTISRDNSKNTLYLHMNSLRAEDTAVYYCARPRAYYGAYGSSFDYWGQGTQVTVSS
VL: EIVMTQSPSSVSASVGDRVAITCRASQGISSWLAWYQQKPGKAPKLLIYAASSLQSGVPSRFSGSGSGTDFTLTISSLQPEDFATYYCQQSYSTPLTFGGGTKVDIK
notes: Tested as full-length IgG with an IgG1 Fc from HEK293, as supernatant or purified; also called clone F48; anti-FOLR1 antibody F48
For the molecule B6, the OD450 in experiment [1] was 1.56 OD450; in experiment [2], 1.59 OD450; in experiment [3], 1.29 OD450; in experiment [4], 2.54 OD450; in experiment [5] it was 1.15 OD450; in experiment [6], 1.04 OD450. For the same molecule, the OD450 in experiment [7] stood at 0.908 OD450. Further, the “Target binding/IgG level” value in experiment [8] came out at 1.12.

B7: F8 (antibody, V domains shown)
VH: EVQLLESGGGVVQHGRSLRLSCAASGFTFSSYGMHWVRQAPGKGLEWVAVISYDGSNKYYADSVKGRFTISRDNSKNTLYLQMNSLRAEDTAVYYCARPRAYYGAYGSSFDYWGQGTQVTVSS
VL: EIVMTQSPSSVSASVGDRVAITCRASQGISSWLAWYQQKPGKAPKLLIYAASSLQSGVPSRFSGSGSGTDFTLTISSLQPEDFATYYCQQSYSTPLTFGGGTKVDIK
notes: Tested as full-length IgG with an IgG1 Fc from HEK293, as supernatant or purified; also called clone F8; anti-FOLR1 antibody F8
As for B7, the OD450 is 1.67 OD450 in experiment [1]; 1.65 OD450 in experiment [2]; 1.31 OD450 in experiment [3]; 2.45 OD450 in experiment [4]; 0.896 OD450 in experiment [5]; 1.28 OD450 in experiment [6]. Besides, in experiment [7], the OD450 stood at 1.06 OD450. The “Target binding/IgG level” value in experiment [8] turned out to be 1.12.

B8: F100 (antibody, V domains shown)
VH: EVQLLESGGGVVQPGRSLRLSCAASGFTFSSYGMHWVRQAPGKGLEWVAVISYDGSNKYYADSVKGRFTISRPNSKNTLYLQMNSLRAEDTAVYYCARPRAYYGAYGSSFDYWGQGTQVTVSS
VL: EIVMTQSPSSVSASVGDRVAITCRASQGISSWLAWYQQKPGKAPKLLIYAASSLQSGVPSRFSGSGSGTDFTLTISSLQPEDFATYYCQQSYSTPLTFGGGTKVDIK
notes: Tested as full-length IgG with an IgG1 Fc from HEK293, as supernatant or purified; also called clone F100; anti-FOLR1 antibody F100
For the molecule B8, the OD450 in experiment [1] stood at 1.61 OD450; in experiment [2], 1.53 OD450; in experiment [3], 1.18 OD450; in experiment [4], 2.3 OD450; in experiment [5] it was 1.16 OD450; in experiment [6], 1.03 OD450. Also, the OD450 in experiment [7] was 0.875 OD450. In experiment [8], the “Target binding/IgG level” value stood at 1.48.

B9: F112 (antibody, V domains shown)
VH: EVQLLESGGGVVQPGRSLRLSCAASGFTFSSYGMHWVRQAPGKGLEWVAVISYDGSNKYYADSVKGRFTISRHNSKNTLYLQMNSLRAEDTAVYYCARPRAYYGAYGSSFDYWGQGTQVTVSS
VL: EIVMTQSPSSVSASVGDRVAITCRASQGISSWLAWYQQKPGKAPKLLIYAASSLQSGVPSRFSGSGSGTDFTLTISSLQPEDFATYYCQQSYSTPLTFGGGTKVDIK
notes: Tested as full-length IgG with an IgG1 Fc from HEK293, as supernatant or purified; also called clone F112; anti-FOLR1 antibody F112
Take B9: the OD450 in experiment [1] came to 1.56 OD450; in experiment [2], 1.42 OD450; in experiment [3], 1.17 OD450; in experiment [4], 2.35 OD450; in experiment [5], 1.26 OD450; in experiment [6] it was 1.21 OD450. The molecule further yielded an OD450 in experiment [7] of 0.933 OD450. Moreover, in experiment [8], the “Target binding/IgG level” value was determined as 1.12.
